Legend:
[1] = target: HsNMT1ΔC2 (HsNMT1 deletion variant with truncation of the last two amino acids) (human) (UniProt P30419)
[2] = target: T1, Long-HsNMT1 (human N-myristoyltransferase 1, residues 99-496) (human) (UniProt P30419)
T1 sequence: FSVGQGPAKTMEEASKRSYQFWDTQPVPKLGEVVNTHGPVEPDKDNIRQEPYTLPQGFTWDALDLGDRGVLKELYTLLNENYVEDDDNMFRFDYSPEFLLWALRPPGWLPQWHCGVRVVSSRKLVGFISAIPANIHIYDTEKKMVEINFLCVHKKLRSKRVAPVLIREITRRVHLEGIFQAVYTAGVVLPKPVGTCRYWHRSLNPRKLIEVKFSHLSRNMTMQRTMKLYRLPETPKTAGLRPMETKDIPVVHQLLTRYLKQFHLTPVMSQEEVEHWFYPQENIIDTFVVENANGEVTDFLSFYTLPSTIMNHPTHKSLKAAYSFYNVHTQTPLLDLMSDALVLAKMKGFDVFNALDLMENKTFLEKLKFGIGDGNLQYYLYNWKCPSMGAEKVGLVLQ

[3] = target: HsNMT1ΔC3 (HsNMT1 variant with truncation of the last three amino acids) (human) (UniProt P30419)

## GCSVSKKK [GlyCysSerValSerLysLysLys (SOS3) peptide]
[1]
  Km for the peptide in the fluorescence-based coupled in vitro MYR assay with MyrCoA, 30 °C: 629 µM
[2]
  Km for the peptide in the fluorescence-based coupled in vitro MYR assay with MyrCoA, 30 °C: 18 µM
[3]
  Km for the peptide in the fluorescence-based coupled in vitro MYR assay with MyrCoA, 30 °C: 2140 µM
